Data on 2 molecules can be found in PMC10811338, “2.7 Å cryo-EM structure of human telomerase H/ACA ribonucleoprotein” (Nature Communications, 2024).

One data set deals with T1, TCAB1 (human (endogenous in HEK293T), UniProt Q9BUR4 1-548).
T1 construct: TCAB1, human, Cajal body localization factor of the telomerase H/ACA RNP; also called Cajal body localization factor; source: HEK293T cells transfected with TERT and hTR
The data set is described as follows: cryo-EM structure; telomerase-DNA-TPT complex assembled in HEK293T cells and purified as a whole, BS3 cross-linked; H/ACA RNP lobe by signal subtraction; 2.7 Å (semi-closed thumb loop) and 3.1 Å (open thumb loop) reconstructions. The settings on record: both partners purified.

Data set [1] concerns the molecule itself. The description is as above.

T1 sequence (Q9BUR4 whole entry): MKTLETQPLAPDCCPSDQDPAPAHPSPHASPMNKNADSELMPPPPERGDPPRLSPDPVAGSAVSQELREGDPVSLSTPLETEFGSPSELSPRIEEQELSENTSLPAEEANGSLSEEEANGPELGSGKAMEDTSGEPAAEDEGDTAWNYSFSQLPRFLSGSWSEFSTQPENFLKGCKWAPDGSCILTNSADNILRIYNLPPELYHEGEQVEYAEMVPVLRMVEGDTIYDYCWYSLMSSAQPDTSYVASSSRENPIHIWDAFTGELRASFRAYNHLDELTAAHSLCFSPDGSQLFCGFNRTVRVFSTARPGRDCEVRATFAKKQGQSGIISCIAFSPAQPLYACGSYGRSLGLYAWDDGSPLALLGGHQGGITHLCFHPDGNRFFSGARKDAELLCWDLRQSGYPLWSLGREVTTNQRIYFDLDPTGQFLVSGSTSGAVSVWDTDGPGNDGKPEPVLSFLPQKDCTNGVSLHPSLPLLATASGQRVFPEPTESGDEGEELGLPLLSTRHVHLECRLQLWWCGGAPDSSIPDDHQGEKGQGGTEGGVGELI

B1: NHP2 (natural protein, human (endogenous in HEK293T), UniProt Q9NX24 1-153, looked up)
chain: MTKIKADPDGPEAQAEACSGERTYQELLVNQNPIAQPLASRRLTRKLYKCIKKAVKQKQIRRGVKEVQKFVNKGEKGIMVLAGDTLPIEVYCHLPVMCEDRNLPYVYIPSKTDLGAAAGSKRPTCVIMVKPHEEYQEAYDECLEEVQSLPLPL
notes: NHP2, human, core H/ACA protein; two copies (5’ and 3’) stand in the telomerase H/ACA RNP; also called 3’ NHP2; source: HEK293T cells transfected with TERT and hTR
For B1, the binding result in the data set with TCAB1 is given as “binds”.

B2: dyskerin (natural protein, human (endogenous in HEK293T), UniProt O60832 1-514, looked up)
chain: MADAEVIILPKKHKKKKERKSLPEEDVAEIQHAEEFLIKPESKVAKLDTSQWPLLLKNFDKLNVRTTHYTPLACGSNPLKREIGDYIRTGFINLDKPSNPSSHEVVAWIRRILRVEKTGHSGTLDPKVTGCLIVCIERATRLVKSQQSAGKEYVGIVRLHNAIEGGTQLSRALETLTGALFQRPPLIAAVKRQLRVRTIYESKMIEYDPERRLGIFWVSCEAGTYIRTLCVHLGLLLGVGGQMQELRRVRSGVMSEKDHMVTMHDVLDAQWLYDNHKDESYLRRVVYPLEKLLTSHKRLVMKDSAVNAICYGAKIMLPGVLRYEDGIEVNQEIVVITTKGEAICMAIALMTTAVISTCDHGIVAKIKRVIMERDTYPRKWGLGPKASQKKLMIKQGLLDKHGKPTDSTPATWKQEYVDYSESAKKEVVAEVVKAPQVVAEAAKTAKRKRESESESDETPPAAPQLIKKEKKKSKKDKKAKAGLESGAEPGDGDSDTTKKKKKKKKAKEVELVSE
notes: dyskerin, human, catalytic pseudouridine synthase subunit of H/ACA RNPs; domains NTE, PUA, TruB, CTE; two copies (5’ and 3’) stand in the telomerase H/ACA RNP; residues 1-22 (5’ copy) and 1-42 (3’ copy) are not visible in the map; also called 5’ dyskerin; 3’ dyskerin; source: endogenous, HEK293T cells transfected with TERT and hTR
As to B2, in data set [1], the binding result was “binds”.
